The values that follow come from patent US20220380456A1 (UNITED KINGDOM RESEARCH AND INNOVATION, published 2022).

As usually defined, the koff is the rate constant with which the complex falls apart. A higher koff goes with fast dissociation. As usually defined, the kon is a measure of how fast the partners come together. Higher therefore signals fast association. As usually defined, the Kd is the free concentration of one partner at which half of the binding sites on the other are occupied at equilibrium, for simple one-to-one binding. High values mean weaker binding, low ones tighter binding.

The target in assay [1] is T1, His6-TEV-MSP1D1 (CA15914) (human Apo A-I derived, engineered, biotinylated with EZ-link NHS-Biotin for the BLI experiment only).
T1 construct: Membrane scaffold protein; The entry holds the 6xHis tag, the TEV cleavage site and MSP1D1; Tested in Apo-state (lipid free) and in Nanodisc-state (POPC nanodisc, two MSP1D1 per nanodisc)
T1 chain: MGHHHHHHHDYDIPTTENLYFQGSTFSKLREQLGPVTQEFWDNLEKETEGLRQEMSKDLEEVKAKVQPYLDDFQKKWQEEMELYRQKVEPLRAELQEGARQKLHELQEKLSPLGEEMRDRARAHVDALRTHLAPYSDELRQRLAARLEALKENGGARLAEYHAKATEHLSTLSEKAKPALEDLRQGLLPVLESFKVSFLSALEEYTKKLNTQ
Nature of the assay: ELISA, purified MegaBody 200 nM on coated MSP (1 µg/mL in 100 µL, Apo- and Nanodisc-state), EPEA-tag detection, OD405 after 1 h.

Assay [2] deals with T2, His6-TEV-MSP2N2 (CA15915) (human Apo A-I derived, engineered, UniProt P02647 79-267, limits assumed).
T2 construct: Membrane scaffold protein; The entry holds the 6xHis tag, the TEV cleavage site and MSP2N2; Tested in Apo-state, in Nanodisc-state, and as the belt of nanodiscs loaded with GABAAR-β3
The assay is described as above.

Another assay has as its target T3, MSP1E3D1 (human Apo A-I derived, engineered).
T3 construct: also called MSP1E1D3 MSP variant
T3 chain: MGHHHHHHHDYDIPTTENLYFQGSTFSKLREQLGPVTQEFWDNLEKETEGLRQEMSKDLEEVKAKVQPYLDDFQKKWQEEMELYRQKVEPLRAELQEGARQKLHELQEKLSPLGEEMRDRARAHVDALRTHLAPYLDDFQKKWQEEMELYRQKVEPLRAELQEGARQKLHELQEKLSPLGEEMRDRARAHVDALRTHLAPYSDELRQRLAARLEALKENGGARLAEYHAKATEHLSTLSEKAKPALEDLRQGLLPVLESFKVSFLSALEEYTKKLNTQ
The experiment in a line: ELISA on coated MSP variants, n=3. On the technique in general: ELISA stands for enzyme-linked immunosorbent assay.

Assay [3] has as its target T1, His6-TEV-MSP1D1 (CA15914). The experiment in a line: BLI (OctetRED96), biotinylated Apo MSP1D1 on streptavidin sensors, 1:2 binding model.
The target of assay [4] is T1, His6-TEV-MSP1D1 (CA15914). Nature of the assay: BLI (OctetRED96), biotinylated MSP1D1 (Apo-state) on streptavidin sensors, 1:2 binding model, 30 °C; biotinylated Apo-state MSP1D1 on the SA sensor; 30 C; 1:2 binding model.
Assay [5] addresses T1, His6-TEV-MSP1D1 (CA15914). Nature of the assay: ELISA, purified MegaBody on coated MSP (Apo- or Nanodisc-state) vs non-coated wells, A405.
In assay [6] the target is T2, His6-TEV-MSP2N2 (CA15915). Described as above.

A value given as a limit tells only on which side of the number the result lay.

B1: MegaBody MbNb25^c7HopQ against GABAAR-β3 (other)
chain: QVQLVESGGGLVQTKTTTSVIDTTNDAQNLLTQAQTIVNTLKDYCPILIAKSSSSNGGTNNANTPSWQTAGGGKNSCATFGAEFSAASDMINNAQKIVQETQQLSANQPKNITQPHNLNLNSPSSLTALAQKMLKNAQSQAEILKLANQVESDFNKLSSGHLKDYIGKCDASAISSANMTMQNQKNNWGNGCAGVEETQSLLKTSAADFNNQTPQINQAQNLANTLIQELGNNTYEQLSRLLTNDNGTNSKTSAQAINQAVNNLNERAKTLAGGTTNSPAYQATLLALRSVLGLWNSMGYAVICGGYTKSPGENNQKDFHYTDENGNGTTINCGGSTNSNGTHSYNGTNTLKADKNVSLSIEQYEKIHEAYQILSKALKQAGLAPLNSKGEKLEAHVTTSKYGSLRLSCAASGHTFNYPIMGWFRQAPGKEREFVGAISWSGGSTSYADSVKDRFTISRDNAKNTVYLEMNNLKPEDTAVYYCAAKGRYSGGLYYPTNYDYWGQGTQVTVSSHHHHHHEPEA
notes: MegaBody derived from Nb25 with the c7HopQ scaffold
Take B1: the binding result is “no binding (tested: 200 nM)” in assay [1], “no binding (tested: 200 nM)” in assay [2] and “no binding” in the assay with MSP1E3D1.

B2: MbNbF3^c7HopQ MegaBody (CA15192) (other)
chain: QVQLVESGGGLVQTKTTTSVIDTTNDAQNLLTQAQTIVNTLKDYCPILIAKSSSSNGGTNNANTPSWQTAGGGKNSCATFGAEFSAASDMINNAQKIVQETQQLSANQPKNITQPHNLNLNSPSSLTALAQKMLKNAQSQAEILKLANQVESDFNKLSSGHLKDYIGKCDASAISSANMTMQNQKNNWGNGCAGVEETQSLLKTSAADFNNQTPQINQAQNLANTLIQELGNNTYEQLSRLLTNDNGTNSKTSAQAINQAVNNLNERAKTLAGGTTNSPAYQATLLALRSVLGLWNSMGYAVICGGYTKSPGENNQKDFHYTDENGNGTTINCGGSTNSNGTHSYNGTNTLKADKNVSLSIEQYEKIHEAYQILSKALKQAGLAPLNSKGEKLEAHVTTSKYGSLRLSCAASGSGFGPNVMGWYRQAPGKRRELVATINRIGNINYGDSVKGRFTLSREIAVNTVYLQMNSLKPEDAANYYCYAAKYGVDYWGKGTQVTVSSHHHHHHEPEA
notes: MegaBody: c7HopQ scaffold inserted in the first β-turn of Nanobody MP1521_F3; Entry includes 6xHis and EPEA tags; also called MbF3^c7HopQ MegaBody
Regarding B2, the koff in assay [3] was found to be 0.00103 s⁻¹. The kon in assay [3] was found to be 44000 M⁻¹ s⁻¹. The Kd in assay [4] was 23.5 nM. Also, the binding result in the assay with MSP1E3D1 was “binds”. In addition, the “fold ELISA signal over no MSP” value in assay [5] and in assay [6] was ≥ 4 fold in each case.
